Like-named read-outs stand apart in the source and are kept apart here. Each block holds one binder with its values, some of them ahead of it.
What was measured:
[1] = target: T1, Recombinant extracellular domain of human FOLR1 (Novoprotein, Cat#: C784) (human, UniProt P15328 25-233, limits assumed); assay: ELISA on immobilized FOLR1 extracellular domain; O.D. 450 nm
T1 construct: Bought reagent; also called recombinant FOLR1; immobilized FOLR1 extracellular domain

[2] = target: T2, FOLR1 on SK-OV-3 cells (ATCC HTB-77) (Homo sapiens (Human), UniProt P15328 25-234); assay: FACS on SK-OV-3 cells; MFI
T2 construct: Endogenous FOLR1 of the cell line; also called cells that are known to express FOLR1

[3] = target: T1, Recombinant extracellular domain of …; assay: ELISA on immobilized FOLR1 extracellular domain; O.D. 450 nm; remark: listed apart in the source
[4] = target: T1, Recombinant extracellular domain of …; assay: as above; remark: listed apart in the source
[5] = target: T2, FOLR1 on SK-OV-3 cells (ATCC HTB-77); assay: FACS on SK-OV-3 cells; MFI; remark: listed apart in the source
[6] = target: T1, Recombinant extracellular domain of …; assay: ELISA on immobilized FOLR1 extracellular domain; O.D. 450 nm; remark: listed apart in the source
[7] = target: T2, FOLR1 on SK-OV-3 cells (ATCC HTB-77); assay: FACS on SK-OV-3 cells; MFI; remark: listed apart in the source

T2 sequence (P15328 25-234 limits assumed): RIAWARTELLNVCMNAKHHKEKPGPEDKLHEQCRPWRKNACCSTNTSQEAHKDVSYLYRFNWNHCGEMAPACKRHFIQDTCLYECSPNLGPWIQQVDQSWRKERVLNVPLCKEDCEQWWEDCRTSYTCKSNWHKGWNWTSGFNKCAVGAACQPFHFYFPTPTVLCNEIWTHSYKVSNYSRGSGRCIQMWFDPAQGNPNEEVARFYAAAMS
T1 sequence (P15328 25-233 limits assumed): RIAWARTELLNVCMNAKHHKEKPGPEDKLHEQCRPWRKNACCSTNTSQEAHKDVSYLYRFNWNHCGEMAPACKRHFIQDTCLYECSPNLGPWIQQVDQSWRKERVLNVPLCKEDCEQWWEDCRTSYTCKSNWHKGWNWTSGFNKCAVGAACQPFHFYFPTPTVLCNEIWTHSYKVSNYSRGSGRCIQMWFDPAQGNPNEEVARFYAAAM

B2: F20-H1L3 (antibody, V domains shown)
VH: QVQLVQSGAEVKKPGSSVKVSCKASGYTFASYYLYWVRQAPGQGLEWIGEINPRSGGTNFNEKFKSRATVTVDKSTSTAYMELSSLRSEDTAVYYCSRSGRLRGFYTMDYWGQGTLVTVSS
VL: DIQMTQSPSTLSASVGDRVTITCKAGENVGSYVSWYQQKPGKAPKLLIYGASNRYTGVPARFSGSGSATEFTLTISSLQPDDFATYYCGQTYRFLTFGQGTKVEVK
notes: also called humanized F20 mAb H1L3
- EC50 (read off the curve) [3]: ~0.2 nM

B4: F10-H1L2 (antibody, V domains shown)
VH: EVQLVQSGAEVKKPGSSVKVSCKASGYAFSSSWMNWVRQAPGQGLEWIGRIYPGDGYTHYNGMFKGRASLTADKSTSTGYMELSSLRSEDTAVFFCTRHGDFPYWYFDVWGRGTLVTVSP
VL: DIQMTQSPSTLSASVGDRVTITCRASENIDSYLAWYQQKPGRAPKLLVYAATNLAVGVPSRFSGSGSGTEYTLTISSLQPDDFATYYCQHHYSTPPTFGQGTKLEIK
notes: also called humanized F10 mAb H1L2
- EC50 (read off the curve) [6]: ~0.3 nM
- EC50 (read off the curve) [7]: ~3 nM

Further lines, results first:

- binding result [1]: binds
- binding result [2]: binds
B1: F20-H1L2 (antibody, V domains shown)
VH: QVQLVQSGAEVKKPGSSVKVSCKASGYTFASYYLYWVRQAPGQGLEWIGEINPRSGGTNFNEKFKSRATVTVDKSTSTAYMELSSLRSEDTAVYYCSRSGRLRGFYTMDYWGQGTLVTVSS
VL: DIVMTQSPDSLAVSLGERATINCKAGENVGSYVSWYQQKPGQSPKLLIYGASNRYTGVPDRFSGSGSATDFTLTISSLQAEDVAVYYCGQTYRFLTFGQGTKVEIK
notes: also called humanized F20 mAb H1L2

- EC50 (read off the curve) [4]: ~0.2 nM
- EC50 (read off the curve) [5]: ~3 nM
B3: F20-H2L4 (antibody, V domains shown)
VH: QVQLVQSGAEVKKPGSSVKVSCKASGYTFASYYLYWVRQAPGQGLEWIGEINPRSGGTNFNEKFKSRATVTVDASTSTAYMELSSLRSEDTAVYYCSRSGRLRGFYTMDYWGQGTLVTVSS
VL: DIQMTQSPSTLSASVGDRVTITCKAGENVGSYVSWYQQKPGKAPKLLIYGASNRYTGVPARFSGSGSATEFTLTISSLQPEDFATYYCGQTYRFLTFGQGTKVEVK
notes: also called humanized F20 mAb H2L4

Source: patent publication US20210002363A1 (PHANES THERAPEUTICS, published 2021)
